In general, Kd refers to the equilibrium constant for the complex coming apart.

For one molecule, Kd results are on record in paper PMC6363164.

The assay deals with Rab7-RILP complex (human) (UniProt P51149). The experiment in a line: ITC; 20 °C; 20 mM Tris-HCl pH 7.5, 150 mM NaCl; 1 mM ORP1 ANK in the syringe, 0.1 mM Rab7 or Rab7-RILP in the cell; Rab7 Q67L with 0.5 mM GTP, Rab7 T22N with 0.5 mM GDP; independent binding model.

B1: human ORP1 ANK domain (residue 5-152) (domain or fragment)
chain: AEQQLLHHARNGNAEEVRQLLETMARNEVIADINCKGRSKSNLGWTPLHLACYFGHRQVVQDLLKAGAEVNVLNDMGDTPLHRAAFTGRKELVMLLLEYNADTTIVNGSGQTAKEVTHAEEIRSMLEAVERTQQRKLEELLLAAAREG
As to B1, the dissociation constant (Kd) came out at 5 µM.
